Assay results: IntAct's records for PubMed 16407074

B1: Mortality factor 4-like protein 1 (Homo sapiens), Q9UBU8-2 (parent)
chain: MAPKQDPKPKFQEGERVLCFHGPLLYEAKCVKVAIKDKQVKYFIHYSGWNKNWDEWVPESRVLKYVDTNLQKQRELQKANQEQYAEGKMRGAAPGKKTSGLQQKNVEVKTKKNKQKTPGNGDGGSTSETPQPPRKKRARVDPTVENEETFMNRVEVKVKIPEELKPWLVDDWDLITRQKQLFYLPAKKNVDSILEDYANYKKSRGNTDNKEYAVNEVVAGIKEYFNVMLGTQLLYKFERPQYAEILADHPDAPMSQVYGAPHLLRLFVRIGAMLAYTPLDEKSLALLLNYLHDFLKYLAKNSATLFSASDYEVAPPEYHRKAV

Variants of: B1
Settings: with mr1l1_human MRFAP1L1, Q96HT8
mr1l1_human MRFAP1L1, Q96HT8, sequence (Q96HT8 whole entry): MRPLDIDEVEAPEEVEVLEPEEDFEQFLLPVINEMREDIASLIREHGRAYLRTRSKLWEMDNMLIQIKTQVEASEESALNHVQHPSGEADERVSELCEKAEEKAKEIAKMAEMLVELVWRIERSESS
In the case of V169E, the “effect of a mutation on the interaction” value is reported as “disrupting interaction”.

Variants of: B1
Settings: with mrgbp_human MRGBP
L291A was tested, and the “effect of a mutation on the interaction” value was “disrupting interaction strength”.
